Experiments:
[1] = target: active human C1s purified from human serum (CompTech, Tyler, TX, catalog number A104) (human) (UniProt P09871); assay: SPR
[2] = target: recombinant human ProC1s with Arg437 mutated to glutamine (hProC1s_RQ), C-terminal spacer and 10 histidines (human); assay: SPR
recombinant human ProC1s with Arg437 mutated to glutamine (hProC1s_RQ), C-terminal spacer and 10 histidines (human), sequence (chain, as listed by the source limits assumed, change not shown, form in doubt): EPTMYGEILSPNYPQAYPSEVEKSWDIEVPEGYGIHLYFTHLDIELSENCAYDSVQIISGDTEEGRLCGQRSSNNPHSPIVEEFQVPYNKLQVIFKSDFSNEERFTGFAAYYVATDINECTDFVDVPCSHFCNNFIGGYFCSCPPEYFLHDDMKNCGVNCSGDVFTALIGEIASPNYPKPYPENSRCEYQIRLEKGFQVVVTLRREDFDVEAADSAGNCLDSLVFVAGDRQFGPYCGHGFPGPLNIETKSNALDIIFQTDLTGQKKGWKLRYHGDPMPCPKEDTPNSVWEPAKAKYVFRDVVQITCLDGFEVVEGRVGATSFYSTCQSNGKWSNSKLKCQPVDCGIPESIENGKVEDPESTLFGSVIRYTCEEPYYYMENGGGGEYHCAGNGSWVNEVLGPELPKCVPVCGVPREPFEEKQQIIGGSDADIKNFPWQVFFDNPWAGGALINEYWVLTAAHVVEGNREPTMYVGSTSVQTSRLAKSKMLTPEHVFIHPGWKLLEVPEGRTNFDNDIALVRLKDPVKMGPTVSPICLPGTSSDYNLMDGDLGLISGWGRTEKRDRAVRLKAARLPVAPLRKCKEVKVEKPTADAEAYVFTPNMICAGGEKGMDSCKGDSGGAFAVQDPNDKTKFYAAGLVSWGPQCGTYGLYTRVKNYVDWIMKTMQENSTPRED

active human C1s purified from human serum (CompTech, Tyler, TX, catalog number A104) (human), sequence (P09871 16-437, chain 1 of 2): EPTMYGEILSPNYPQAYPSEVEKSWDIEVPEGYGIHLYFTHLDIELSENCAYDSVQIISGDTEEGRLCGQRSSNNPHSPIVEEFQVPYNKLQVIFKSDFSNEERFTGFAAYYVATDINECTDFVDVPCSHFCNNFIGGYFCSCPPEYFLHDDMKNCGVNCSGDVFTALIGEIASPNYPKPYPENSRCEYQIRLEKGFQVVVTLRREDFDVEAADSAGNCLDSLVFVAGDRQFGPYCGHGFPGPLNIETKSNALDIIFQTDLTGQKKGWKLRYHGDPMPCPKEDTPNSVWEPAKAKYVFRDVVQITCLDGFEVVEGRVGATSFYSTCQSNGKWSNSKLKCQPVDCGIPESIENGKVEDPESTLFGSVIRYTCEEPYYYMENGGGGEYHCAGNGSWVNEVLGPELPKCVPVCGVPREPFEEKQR
active human C1s purified from human serum (CompTech, Tyler, TX, catalog number A104) (human), sequence (P09871 438-688, chain 2 of 2): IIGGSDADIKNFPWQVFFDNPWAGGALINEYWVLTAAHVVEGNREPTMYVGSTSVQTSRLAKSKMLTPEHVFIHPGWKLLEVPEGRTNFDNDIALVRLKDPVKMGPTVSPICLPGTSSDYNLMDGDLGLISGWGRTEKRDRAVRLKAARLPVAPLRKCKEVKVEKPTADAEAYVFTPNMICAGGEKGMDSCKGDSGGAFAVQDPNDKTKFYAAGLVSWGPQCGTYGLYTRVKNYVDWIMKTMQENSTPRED

- Kd [1]: 250 pM
- Kd [2]: 400 pM
Substance: recombinant sutimlimab/BIVV009/TNT009 (antibody)

Source: patent US20250188188A1
